Data on 2 substances can be found in patent publication US6008320A, “Elastase inhibitor and process for preparing the same” (Korea Advanced Institute of Science and Technology, priority 1995, dated 1999).

For data set [1], the system named is elastase. Description: Elastase-inhibiting activity assay (decrease in ρ-nitroaniline degrading activity of elastase). It is filed as biochemical. The conditions noted are these: 1 U = amount of inhibitor that decreases the degradation of 1 μM ρ-nitroaniline by elastase per minute; 37° C., 50 min. How it is done: The activity of the purified Guamerin was assayed as follows: 50 μl of elastase-containing solution(0.37 mg/ml) and 500 μl of 1 mM .rho.-nitroaniline were mixed together, and 50 μl of each of fractions obtained in the course of purification was added to the mixture, and left to react at 37° C. for 50 min. The absorbance(O.D.) at 440 nm calculated in terms of the hydrolysed .rho.-nitroaniline, was measured. O.D. values of the control and the active fractions were compared, and the activity of Guamerin was determined, based on the decrease in .rho.-nitroaniline degradating activity of elastase.
Protein was quantitatively assayed by Bradford method(see: Bradford, M. M., Anal. Biochem., 72: 248-254(1976)). In this regard, one unit(1 U) was defined as the amount of inhibitor that decreases the degradation of 1 μM .rho.-nitroaniline by elastase per minute.

In data set [2] the test system is elastase. In words: Specificity of inhibiting activity: elastase. It is filed as biochemical. To be noted: FIG. 4: HL-elastase (human leukocyte) and PP-elastase (porcine pancreas). Here is the method:
(§1) The specific activities of Guamerin on the other types of proteases beside elastase, were studied; and, it was determined that: while it has no effect on papain, pepsin, thrombin, and factor Xa, Guamerin had about 15% of inhibiting-activity against trypsin, chymotrypsin, and subtilisin. […] In FIG. 4, HL-elastase and PP-elastase represent the ones isolated from human leukocyte and porcine pancreas, respectively.

The target in another data set is T1, papain (Carica papaya, UniProt P00784).
T1 sequence (P00784 134-345): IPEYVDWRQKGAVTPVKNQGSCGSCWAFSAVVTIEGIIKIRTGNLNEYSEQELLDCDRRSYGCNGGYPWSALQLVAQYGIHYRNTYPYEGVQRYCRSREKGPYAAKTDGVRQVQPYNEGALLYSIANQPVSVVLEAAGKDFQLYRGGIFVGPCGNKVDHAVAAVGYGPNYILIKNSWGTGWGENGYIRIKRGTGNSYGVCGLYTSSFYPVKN
In words: Specificity of inhibiting activity: papain. It is filed as biochemical. How it is done: as §1

The target in a further data set is pepsin (Homo sapiens, UniProt P0DJD8). Description: Specificity of inhibiting activity: pepsin. It is filed as biochemical. Here is the method:
as §1

The target in another data set is thrombin (Homo sapiens, UniProt P00734). In words: Specificity of inhibiting activity: thrombin. It is filed as biochemical. How it is done:
as §1

The next data set deals with factor Xa (Homo sapiens, UniProt P00742). In words: Specificity of inhibiting activity: factor Xa. It is filed as biochemical. Here is the method:
as §1

Another data set deals with T2, trypsin (Bos taurus, UniProt P00760).
T2 construct: gene PRSS1
T2 sequence (P00760 24-246): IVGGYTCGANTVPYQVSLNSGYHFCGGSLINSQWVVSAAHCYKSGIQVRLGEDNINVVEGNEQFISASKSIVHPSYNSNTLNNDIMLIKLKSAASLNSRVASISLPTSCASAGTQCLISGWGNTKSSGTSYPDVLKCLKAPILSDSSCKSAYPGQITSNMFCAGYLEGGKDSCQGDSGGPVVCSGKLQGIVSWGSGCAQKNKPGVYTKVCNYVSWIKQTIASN
In words: Specificity of inhibiting activity: trypsin. It is filed as biochemical. Here is the method: as §1

The target in the next data set is chymotrypsin (Bos taurus, UniProt P00766). In words: Specificity of inhibiting activity: chymotrypsin. It is filed as biochemical. How it is done: as §1
The subject of the next data set is subtilisin. Description: Specificity of inhibiting activity: subtilisin. It is filed as biochemical. Here is the method: as §1
For data set [3], the target named is T3, elastase (Homo sapiens, UniProt P08246).
T3 sequence (P08246 30-247 limits assumed): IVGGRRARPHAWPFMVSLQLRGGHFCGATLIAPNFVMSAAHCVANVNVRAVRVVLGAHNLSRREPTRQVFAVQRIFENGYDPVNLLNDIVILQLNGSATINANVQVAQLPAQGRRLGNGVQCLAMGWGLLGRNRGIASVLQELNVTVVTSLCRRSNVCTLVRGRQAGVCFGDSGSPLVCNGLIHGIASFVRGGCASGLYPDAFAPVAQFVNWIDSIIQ
Description: Determination of inhibition constant and inhibition mechanism. It is filed as biochemical. To be noted: FIG. 5.

The nature of data set [4]: Heat stability of Guamerin activity. It is filed as physicochemical. To be noted: 40° C. to 100° C. at an interval of 10° C., 15 min. How it is done: To investigate the effect of heat on the activity of Guamerin, it was subjected to heating condition at an interval of 10° C. ranging from 40° C. to 100° C. for 15 min(see: FIG. 6).
Data set [5] deals with T4, elastase (Homo sapiens, UniProt P08246).
T4 sequence (P08246 30-267): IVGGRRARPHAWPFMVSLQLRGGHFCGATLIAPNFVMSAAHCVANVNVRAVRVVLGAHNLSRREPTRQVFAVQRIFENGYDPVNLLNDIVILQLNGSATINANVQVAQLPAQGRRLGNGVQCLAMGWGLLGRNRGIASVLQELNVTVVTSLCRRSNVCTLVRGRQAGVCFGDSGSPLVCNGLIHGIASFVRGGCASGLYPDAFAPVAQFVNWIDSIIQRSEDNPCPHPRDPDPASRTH
The conditions noted are these: other elastase-inhibiting proteins in the prior art; read-out: inhibition constant; cited from earlier work.

Entries after “also recorded” stand apart in the source; their conditions may differ.

Chain of pepsin (P0DJD8 63-388): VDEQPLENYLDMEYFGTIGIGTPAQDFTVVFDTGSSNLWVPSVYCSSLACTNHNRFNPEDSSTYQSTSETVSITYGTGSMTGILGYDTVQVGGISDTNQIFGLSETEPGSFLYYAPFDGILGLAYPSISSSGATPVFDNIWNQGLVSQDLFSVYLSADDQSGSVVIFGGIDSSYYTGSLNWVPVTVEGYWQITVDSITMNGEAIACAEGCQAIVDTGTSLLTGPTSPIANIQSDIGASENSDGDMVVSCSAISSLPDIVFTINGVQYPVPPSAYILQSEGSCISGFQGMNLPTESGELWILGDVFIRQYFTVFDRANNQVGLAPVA
Chain of factor Xa (P00742 235-488 limits assumed): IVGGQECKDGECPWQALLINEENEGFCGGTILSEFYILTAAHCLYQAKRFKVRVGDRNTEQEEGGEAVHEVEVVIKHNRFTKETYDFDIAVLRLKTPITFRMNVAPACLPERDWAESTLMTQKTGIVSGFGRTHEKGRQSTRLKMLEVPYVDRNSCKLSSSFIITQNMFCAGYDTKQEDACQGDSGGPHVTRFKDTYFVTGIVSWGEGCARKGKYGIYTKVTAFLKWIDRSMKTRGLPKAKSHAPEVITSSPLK

In the data set with elastase [1], “Guamerin: novel elastase-inhibiting protein isolated from a Korean leech, Guameri (Hirudo nipponia); 57 amino acids, 6,110 Da (VDENAEDTHGLCGEKTCSPAQVCLNNECACTAIRCMIFCPNGFKVDENGCEYPCTCA)” had a Specific activity of 361 units/mg. Moreover, in the data set on elastase [2], the “inhibiting activity on elastase” value was “about 90%”. For the same substance, the effect on papain result with papain is “no effect”. Moreover, the effect on pepsin entry with pepsin is listed as “no effect”. In addition, in the data set with thrombin, the effect on thrombin entry was “no effect”. The “effect on factor Xa” value in the data set with factor Xa was “no effect”. Besides, in the data set with trypsin, the inhibiting-activity against trypsin result is “about 15%”. Moreover, in the data set with chymotrypsin, the inhibiting-activity against chymotrypsin entry is given as “about 15%”. In addition, in the data set with subtilisin, the inhibiting-activity against subtilisin entry is given as “about 15%”. The “mechanism of elastase inhibition” value with elastase [3] is “competitive inhibition”. The “change in activity after heating” value in data set [4] is listed as “quite stable; also recorded: no change”.
With “elafin: elastase-inhibiting protein in the prior art, printed as isolated from european leeches (AQEPVKGPVSTKPGSCPIILIRCAMLNPPNRCLKDTDCPGIKKCCEGSCGMACFVPQ; UniProt P19957 61-117, looked up)”, in the data set with elastase [5], the Ki was 600 pM.
